B1: GD2xCD3-HDD bispecific fusion protein (scFv5F11-scFvhOKT3 with HNF-1alpha dimerization component, Y-BT-HDD) (bispecific antibody)
scFv: QVQLQQSGPELVKPGASVKISCKTSGYKFTEYTMHWVKQSHGKCLEWIGGINPNNGGTNYNQKFKGKATLTVDKSSSTAYMELRSLTSEDSAVYYCARDTTVPYAYWGQGTTVTVSSGGGGSGGGGSGGGGSDIELTQSPAIMSASPGEKVTMTCSASSSISYMHWYQQKPGTSPKRWIYDTSKLASGVPARFSGSGSGTSYSLTISSMEAEDAATYYCHQRSSYPLTFGCGTKLEIKRASTKGPGGGGSGGGGSGGGGSQVQLVQSGGGVVQPGRSLRLSCKASGYTFTRYTMHWVRQAPGKGLEWIGYINPSRGYTNYNQKFKDRFTISRDNSKNTAFLQMDSLRPEDTGVYFCARYYDDHYCLDYWGQGTPVTVSSGGGGSGGGGSGGGGSDIQMTQSPSSLSASVGDRVTITCSASSSVSYMNWYQQTPGKAPKRWIYDTSKLASGVPSRFSGSGSGTDYTFTISSLQPEDIATYYCQQWSSNPFTFGQGTKLQITRTPLGDTTHTSGMVSKLSQLQTELLAALLESGLSKEALIQALGEGSGGAPHHHHHH
B2: Humanized OKT3 IgG (parental humanized OKT3 antibody) (antibody, V domains shown)
VH: QVQLVQSGGGVVQPGRSLRLSCKASGYTFTRYTMHWVRQAPGKGLEWIGYINPSRGYTNYNQKFKDRFTISRDNSKNTAFLQMDSLRPEDTGVYFCARYYDDHYCLDYWGQGTPVTVSS
VL: DIQMTQSPSSLSASVGDRVTITCSASSSVSYMNWYQQTPGKAPKRWIYDTSKLASGVPSRFSGSGSGTDYTFTISSLQPEDIATYYCQQWSSNPFTFGQGTKLQITR
B3: GD2xCD3 bispecific fusion protein (scFv5F11-(G4S)3-scFvhOKT3, Y-BT, without dimerization component) (bispecific antibody)
scFv: QVQLQQSGPELVKPGASVKISCKTSGYKFTEYTMHWVKQSHGKCLEWIGGINPNNGGTNYNQKFKGKATLTVDKSSSTAYMELRSLTSEDSAVYYCARDTTVPYAYWGQGTTVTVSSGGGGSGGGGSGGGGSDIELTQSPAIMSASPGEKVTMTCSASSSISYMHWYQQKPGTSPKRWIYDTSKLASGVPARFSGSGSGTSYSLTISSMEAEDAATYYCHQRSSYPLTFGCGTKLEIKRASTKGPGGGGSGGGGSGGGGSQVQLVQSGGGVVQPGRSLRLSCKASGYTFTRYTMHWVRQAPGKGLEWIGYINPSRGYTNYNQKFKDRFTISRDNSKNTAFLQMDSLRPEDTGVYFCARYYDDHYCLDYWGQGTPVTVSSGGGGSGGGGSGGGGSDIQMTQSPSSLSASVGDRVTITCSASSSVSYMNWYQQTPGKAPKRWIYDTSKLASGVPSRFSGSGSGTDYTFTISSLQPEDIATYYCQQWSSNPFTFGQGTKLQITRHHHHHH

Target: CD3 on T cells (Jurkat cells; purified human T cells) (human, UniProt P07766 23-207; P09693 23-182; P04234 22-171)
Test: cell-based or functional assay

Row | Binder | IFN-γ release from human T cells (no tumor cells), ELISA | IL-2 release from human T cells (no tumor cells), ELISA | IL-10 release from human T cells (no tumor cells), ELISA | TNF-α release from human T cells (no tumor cells), ELISA
1 | B1 | 2.1 pg/mL | 2.2 pg/mL | 2.1 pg/mL | 7.6 pg/mL
2 | B2 | 228 pg/mL | 36.5 pg/mL | 29.8 pg/mL | 86.7 pg/mL
3 | B3 | 1.7 pg/mL | 2 pg/mL | 3.6 pg/mL | 7.9 pg/mL
